Where two headings read alike, the source gives them in different places.
Assays:
[1] = target: recombinant SARS-CoV-2 S1 protein expressed from insect (Sf9) cells (S1-His, SinoBiological, Cat. No. 40591-V08B1) (SARS-CoV-2) (UniProt P0DTC2); assay: ELISA, coated insect-cell S1-His, HRP-conjugated lectin 10 ug/mL
[2] = target: recombinant SARS-CoV-2 S1 protein expressed from insect (Sf9) cells (S1-His, SinoBiological, Cat. No. 40591-V08B1) (SARS-CoV-2) (UniProt P0DTC2)

Sequence of Maclura pomifera lectin (MPA) (P18674 whole entry): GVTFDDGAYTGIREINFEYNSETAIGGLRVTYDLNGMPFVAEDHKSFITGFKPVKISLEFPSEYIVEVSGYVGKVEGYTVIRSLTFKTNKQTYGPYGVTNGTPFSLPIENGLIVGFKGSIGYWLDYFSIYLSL
Sequence of Maclura pomifera lectin (MPA) (P18676 whole entry, further chain): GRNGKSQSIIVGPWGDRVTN
Sequence of Peanut Agglutinin (PNA), lectin from Arachis hypogaea (P02872 24-259 limits assumed): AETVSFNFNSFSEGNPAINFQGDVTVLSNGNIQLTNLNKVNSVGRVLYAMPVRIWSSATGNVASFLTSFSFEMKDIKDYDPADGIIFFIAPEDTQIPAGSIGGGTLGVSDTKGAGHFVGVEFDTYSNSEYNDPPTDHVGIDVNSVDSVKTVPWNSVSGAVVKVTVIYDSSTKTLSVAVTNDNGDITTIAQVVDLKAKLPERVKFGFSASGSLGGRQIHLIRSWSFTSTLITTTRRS

Substance “Peanut Agglutinin (PNA), lectin from Arachis hypogaea (from UniProt P02872 24-259)” has a mean fold increase of OD450 [1] of 22.7 fold.

mouse monoclonal IgG3 antibody JAA-F11 showed a mean fold increase of OD450 [2] of 3.32 fold.

Salvia sclarea lectin (SSA) gave a mean fold increase of OD450 [1] of 3.97 fold.

For “SPM320 IgM anti-TF monoclonal antibody (Abnova, Cat. No. MAB13207)”, the mean fold increase of OD450 [2] was 5.5 fold.

Substance “Tn218 IgM anti-Tn monoclonal antibody (Abnova, Cat. No. MAB6198)” has a mean fold increase of OD450 [2] of 1.77 fold.

Work on Maclura pomifera lectin (MPA) yielded a mean fold increase of OD450 [1] of 7.51 fold.
